Assay results taken from US20170052184A1.
Read-outs that look alike come from different tables or passages of the source.

Columns and labels:
[1] = target: Mut1T110N biotin labeled HCV core peptide (hepatitis C virus); assay: EIA; Ab 250 ng/mL captured on anti-mouse Fc; bt-peptide 500 ng/mL
[2] = target: 92-133 biotin labeled HCV core peptide (hepatitis C virus) (UniProt P26664); assay: as above
[3] = target: C113T109N biotin labeled HCV core peptide (hepatitis C virus); assay: as above
[4] = target: Mut6T110S biotin labeled HCV core peptide (hepatitis C virus); assay: as above
[5] = target: Mut1T110N biotin labeled HCV core peptide (hepatitis C virus); assay: EIA; Ab 0.977 ng/mL captured on anti-mouse Fc; bt-peptide 500 ng/mL
[6] = target: Mut6T110S biotin labeled HCV core peptide (hepatitis C virus); assay: as above
[7] = target: Mut1T110N biotin labeled HCV core peptide (hepatitis C virus)
[8] = target: 92-133 biotin labeled HCV core peptide (hepatitis C virus) (UniProt P26664)
[9] = target: C113T109N biotin labeled HCV core peptide (hepatitis C virus)
[10] = target: Mut6T110S biotin labeled HCV core peptide (hepatitis C virus)
[11] = target: Mut1T110N biotin labeled HCV core peptide (hepatitis C virus); assay: EIA; Ab 1.953 ng/mL captured on anti-mouse Fc; bt-peptide 500 ng/mL
[12] = target: 92-133 biotin labeled HCV core peptide (hepatitis C virus) (UniProt P26664); assay: as above
[13] = target: C113T109N biotin labeled HCV core peptide (hepatitis C virus); assay: as above
[14] = target: Mut6T110S biotin labeled HCV core peptide (hepatitis C virus); assay: as above
[15] = target: Mut1T110N biotin labeled HCV core peptide (hepatitis C virus); assay: EIA; Ab 7.813 ng/mL captured on anti-mouse Fc; bt-peptide 500 ng/mL
[16] = target: 92-133 biotin labeled HCV core peptide (hepatitis C virus) (UniProt P26664); assay: as above
[17] = target: C113T109N biotin labeled HCV core peptide (hepatitis C virus); assay: as above
[18] = target: Mut6T110S biotin labeled HCV core peptide (hepatitis C virus); assay: as above
[19] = target: Mut1T110N biotin labeled HCV core peptide (hepatitis C virus); assay: EIA; Ab 125 ng/mL captured on anti-mouse Fc; bt-peptide 500 ng/mL
[20] = target: 92-133 biotin labeled HCV core peptide (hepatitis C virus) (UniProt P26664); assay: as above
[21] = target: C113T109N biotin labeled HCV core peptide (hepatitis C virus); assay: as above
[22] = target: Mut6T110S biotin labeled HCV core peptide (hepatitis C virus); assay: as above
[23] = target: Mut1T110N biotin labeled HCV core peptide (hepatitis C virus); assay: EIA; Ab 2000 ng/mL captured on anti-mouse Fc; bt-peptide 500 ng/mL
[24] = target: 92-133 biotin labeled HCV core peptide (hepatitis C virus) (UniProt P26664); assay: as above
[25] = target: C113T109N biotin labeled HCV core peptide (hepatitis C virus); assay: as above
[26] = target: Mut6T110S biotin labeled HCV core peptide (hepatitis C virus); assay: as above
[27] = target: Mut1T110N biotin labeled HCV core peptide (hepatitis C virus); assay: EIA; Ab 3.906 ng/mL captured on anti-mouse Fc; bt-peptide 500 ng/mL
[28] = target: 92-133 biotin labeled HCV core peptide (hepatitis C virus) (UniProt P26664); assay: as above
[29] = target: C113T109N biotin labeled HCV core peptide (hepatitis C virus); assay: as above
[30] = target: Mut6T110S biotin labeled HCV core peptide (hepatitis C virus); assay: as above
[31] = target: Mut1T110N biotin labeled HCV core peptide (hepatitis C virus); assay: EIA; Ab 62.5 ng/mL captured on anti-mouse Fc; bt-peptide 500 ng/mL
[32] = target: 92-133 biotin labeled HCV core peptide (hepatitis C virus) (UniProt P26664); assay: as above
[33] = target: C113T109N biotin labeled HCV core peptide (hepatitis C virus); assay: as above
[34] = target: Mut6T110S biotin labeled HCV core peptide (hepatitis C virus); assay: as above

With HCV C11-3 monoclonal antibody the signal at 492 nm [1] was 0.0857 OD 492 nm, the signal at 492 nm [2] was 1.68 OD 492 nm and the signal at 492 nm [3] was 0.0963 OD 492 nm. For the same substance, the signal at 492 nm [4] was 1.83 OD 492 nm, the signal at 492 nm [5] was 0.0755 OD 492 nm and the signal at 492 nm [6] was 0.101 OD 492 nm. It also gave a signal at 492 nm [7] of 0.11 OD 492 nm, a signal at 492 nm [8] of 1.01 OD 492 nm and a signal at 492 nm [9] of 0.116 OD 492 nm. It also gave a signal at 492 nm [10] of 0.807 OD 492 nm, a signal at 492 nm [11] of 0.0854 OD 492 nm and a signal at 492 nm [12] of 0.134 OD 492 nm. It also gave a signal at 492 nm [13] of 0.114 OD 492 nm, a signal at 492 nm [14] of 0.0964 OD 492 nm and a signal at 492 nm [15] of 0.0966 OD 492 nm. For the same substance, the signal at 492 nm [16] was 0.562 OD 492 nm, the signal at 492 nm [17] was 0.119 OD 492 nm and the signal at 492 nm [18] was 0.344 OD 492 nm. It also gave a signal at 492 nm [19] of 0.127 OD 492 nm, a signal at 492 nm [20] of 1.83 OD 492 nm and a signal at 492 nm [21] of 0.147 OD 492 nm. The signal at 492 nm [22] was 2.02 OD 492 nm, the signal at 492 nm [23] was 0.0915 OD 492 nm and the signal at 492 nm [24] was 1.45 OD 492 nm. It also gave a signal at 492 nm [25] of 0.0707 OD 492 nm, a signal at 492 nm [26] of 1.73 OD 492 nm and a signal at 492 nm [27] of 0.079 OD 492 nm. The signal at 492 nm [28] was 0.183 OD 492 nm, the signal at 492 nm [29] was 0.0833 OD 492 nm and the signal at 492 nm [30] was 0.227 OD 492 nm. For the same substance, the signal at 492 nm [31] was 0.155 OD 492 nm, the signal at 492 nm [32] was 1.92 OD 492 nm and the signal at 492 nm [33] was 0.202 OD 492 nm. It also gave a signal at 492 nm [34] of 2.11 OD 492 nm.
